Results taken from paper PMC10381084.

Key:
[1] = biological target: Myc-Pk (Drosophila Prickle) (UniProt A1Z6W3); experiment: co-immunoprecipitation (IP α-Flag, IB α-Myc), western blot quantification; details: S2 cells; 6 independent replicates; parent: est. 18; read off a plot
[2] = biological target: Dsh-GFP (Drosophila Dishevelled) (UniProt P51140); experiment: co-immunoprecipitation (IP α-Flag, IB α-GFP), western blot quantification; details: S2 cells, read off a plot
[3] = 6–7 replicates, parent: est. 12

UniProt P51140, sequence (P51140 whole entry, looked up): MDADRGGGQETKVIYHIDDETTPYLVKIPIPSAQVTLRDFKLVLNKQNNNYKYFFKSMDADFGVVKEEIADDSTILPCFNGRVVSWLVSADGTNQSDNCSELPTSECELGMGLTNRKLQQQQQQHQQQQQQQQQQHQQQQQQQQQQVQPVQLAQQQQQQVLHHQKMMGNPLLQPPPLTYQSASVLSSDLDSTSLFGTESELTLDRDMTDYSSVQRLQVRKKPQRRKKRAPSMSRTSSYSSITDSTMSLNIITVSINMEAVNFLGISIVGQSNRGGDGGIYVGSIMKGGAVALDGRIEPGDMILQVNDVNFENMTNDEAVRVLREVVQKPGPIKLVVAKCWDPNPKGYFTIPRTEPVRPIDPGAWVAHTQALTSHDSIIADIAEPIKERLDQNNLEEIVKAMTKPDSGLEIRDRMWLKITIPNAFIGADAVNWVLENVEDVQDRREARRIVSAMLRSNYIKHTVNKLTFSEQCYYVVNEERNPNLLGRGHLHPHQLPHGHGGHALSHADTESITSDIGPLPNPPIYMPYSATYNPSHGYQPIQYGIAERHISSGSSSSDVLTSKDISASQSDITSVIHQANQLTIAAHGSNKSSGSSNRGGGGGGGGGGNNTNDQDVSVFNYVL
UniProt A1Z6W3, sequence (A1Z6W3 whole entry, looked up): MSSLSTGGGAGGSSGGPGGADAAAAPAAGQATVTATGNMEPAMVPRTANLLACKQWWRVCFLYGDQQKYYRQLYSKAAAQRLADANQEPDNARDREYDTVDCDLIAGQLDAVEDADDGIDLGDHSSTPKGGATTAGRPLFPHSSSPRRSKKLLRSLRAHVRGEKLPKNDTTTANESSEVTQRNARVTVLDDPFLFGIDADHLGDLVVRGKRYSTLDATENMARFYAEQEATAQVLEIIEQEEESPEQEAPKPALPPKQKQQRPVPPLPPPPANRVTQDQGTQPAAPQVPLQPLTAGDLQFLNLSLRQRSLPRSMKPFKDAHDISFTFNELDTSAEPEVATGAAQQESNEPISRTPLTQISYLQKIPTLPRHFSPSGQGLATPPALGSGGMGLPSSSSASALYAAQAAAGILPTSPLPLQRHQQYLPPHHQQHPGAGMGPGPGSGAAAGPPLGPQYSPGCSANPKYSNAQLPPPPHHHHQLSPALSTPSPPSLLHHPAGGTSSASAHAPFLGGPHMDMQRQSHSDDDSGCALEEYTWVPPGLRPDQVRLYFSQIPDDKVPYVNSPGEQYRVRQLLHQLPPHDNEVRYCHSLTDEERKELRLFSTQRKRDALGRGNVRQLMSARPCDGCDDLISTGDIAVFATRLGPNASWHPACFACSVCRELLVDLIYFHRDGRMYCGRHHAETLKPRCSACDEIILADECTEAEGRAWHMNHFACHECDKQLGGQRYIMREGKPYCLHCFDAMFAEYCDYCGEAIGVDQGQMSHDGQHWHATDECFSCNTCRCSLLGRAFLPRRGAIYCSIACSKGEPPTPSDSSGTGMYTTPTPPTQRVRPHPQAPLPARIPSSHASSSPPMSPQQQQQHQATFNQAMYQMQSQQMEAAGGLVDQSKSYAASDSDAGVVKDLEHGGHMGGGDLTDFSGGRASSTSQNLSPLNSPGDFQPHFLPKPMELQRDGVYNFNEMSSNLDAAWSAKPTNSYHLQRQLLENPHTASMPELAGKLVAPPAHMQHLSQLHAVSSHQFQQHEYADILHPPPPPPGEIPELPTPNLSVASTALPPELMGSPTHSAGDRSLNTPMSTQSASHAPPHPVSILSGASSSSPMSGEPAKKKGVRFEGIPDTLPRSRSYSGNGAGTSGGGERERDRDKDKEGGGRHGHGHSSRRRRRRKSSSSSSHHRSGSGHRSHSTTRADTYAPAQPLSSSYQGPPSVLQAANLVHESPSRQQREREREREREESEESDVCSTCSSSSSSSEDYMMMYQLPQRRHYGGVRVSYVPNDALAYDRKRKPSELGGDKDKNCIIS

Row | Substance | response [1] [a.u.] | response [2, 3] [a.u.] | response ([2]; 6 replicates, parent: est. 9.6) [a.u.]
1 | Vang-Flagx3 (Drosophila Van Gogh, wild type) F371A; K372A; Y374A | 1 | 1.6 | –
2 | Vang-Flagx3 (Drosophila Van Gogh, wild type) V376A | – | – | 2.5
3 | Vang-Flagx3 (Drosophila Van Gogh, wild type) Y374A | 2.5 | 2.5 | –
